40 sequences from the supplement of paper PMC7877785 can be followed below.

This series in a line: self-splicing fitness, log relative to wild type (ln ratio); higher = more splicing; Tetrahymena group I intron in knt gene, E. coli kanamycin selection, DiMSum; sequences stand for … in CUCUCU…GGAGGGAAAAGUUAUCAGGCAUGCACCUGGUAGCUAGUCUUUAAACCAAUAGAUUGCAUCGGUUUAAAAGGCAAGACCGUCAAAUUGCGGGAAAGGGGUCAACAGCCGUUCAGUACCAAGUCUCAGGGGAAACUUUGAGAUGGCCUUGCAAAGGGUAUGGUAAUAAGCUGACGGACAUGGUCCUAACCACGCAGCCAAGUCCUAAGUCAACAGAUCUUCUGUUGAUAUGGAUGCAGUUCACAGACUAAAUGUCGGUCGGGGAAGAUGUAUUCUUCUCAUAAGAUAUAGUCGGACCUCUCCUUAAUGGGAGCUAGCGGAUGAAGUGAUGCAACACUGGAGCCGCUGGGAACUAAUUUGUAUGCGAAAGUAUAUUGAUUAGUUUUGGAGUACUCGUGGUCG
A digest of the protocol: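 The eight P1ex-region nucleotides of an intron in the knt kanamycin-resistance gene on pET-22b(+) were all randomised and the library put into E. coli BL21(DE3). Six replicate transformations were grown overnight at 37°C or 30°C on LB agar with or without 25 μg/mL kanamycin, together with 100 μg/mL carbenicillin, 50 μM IPTG and 0.2% rhamnose. Colonies were pooled and amplicon-sequenced on an Illumina HiSeq 2500. Fitness from DiMSum is the error-weighted combination of wild-type-normalised replicate fold changes, kanamycin over none.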

± gives the uncertainty stated by the source.

As for UUAGAGCAAUAUUACGCGGU, the “self-splicing fitness (ln)” value reads like this: (30 °C) -2.71 ± 0.25; (37 °C) -2.81 ± 0.48. The matching figures for UUAGAGCAAUAUUACGCUGA: -2.6 ± 0.21 and -0.656 ± 0.28. Consider UUAGAGCAAUAUUACGCUUG, for which the “self-splicing fitness (ln)” value (30 °C) is -0.891 ± 0.11 and the “self-splicing fitness (ln)” value (37 °C) came to 0.00726 ± 0.16.

As to UUAGAGCAAUAUUACGGAGC, the “self-splicing fitness (ln)” value runs as follows: (30 °C) -3.62 ± 0.29; (37 °C) -2.31 ± 0.22. The matching figures for UUAGAGCAAUAUUACGGCAA: -0.627 ± 0.12 and -0.584 ± 0.18. As for UUAGAGCAAUAUUACGGCUC, the “self-splicing fitness (ln)” value (30 °C) is -3.52 ± 0.35 and the “self-splicing fitness (ln)” value (37 °C) was -1.68 ± 0.28.

On to UUAGAGCAAUAUUACGGGCA, for which the “self-splicing fitness (ln)” value (30 °C) is -2.25 ± 0.12 and the “self-splicing fitness (ln)” value (37 °C) is -1.54 ± 0.18. As to UUAGAGCAAUAUUACGGGUC, the “self-splicing fitness (ln)” value was -3.07 ± 0.18 (30 °C) and -1.69 ± 0.22 (37 °C). The matching figures for UUAGAGCAAUAUUACGGUCU: -3.05 ± 0.41 and -2.66 ± 0.48. Regarding UUAGAGCAAUAUUACGUAAU, the “self-splicing fitness (ln)” value was -2.77 ± 0.31 (30 °C) and -1.69 ± 0.36 (37 °C). The like results for UUAGAGCAAUAUUACGUGCA were, in that order, -2.16 ± 0.15 and -0.652 ± 0.16. As to UUAGAGCAAUAUUACGUGCG, the “self-splicing fitness (ln)” value reads like this: (30 °C) -1.28 ± 0.1; (37 °C) -0.87 ± 0.14. Consider UUAGAGCAAUAUUACGUGGG, for which the “self-splicing fitness (ln)” value by setting is: (30 °C) -3.41 ± 0.22; (37 °C) -1.92 ± 0.17. With UUAGAGCAAUAUUACGUGUU, the “self-splicing fitness (ln)” value (30 °C) was -4.76 ± 0.32 and the “self-splicing fitness (ln)” value (37 °C) is -2.53 ± 0.28. Take UUAGAGCAAUAUUACGUUAG: the “self-splicing fitness (ln)” value was -0.978 ± 0.13 (30 °C) and 0.238 ± 0.21 (37 °C). Take UUAUAGCAAUAUUACGACGC: the “self-splicing fitness (ln)” value (30 °C) is -2.63 ± 0.45. As to UUAUAGCAAUAUUACGAGAA, the “self-splicing fitness (ln)” value (37 °C) was -1.51 ± 0.38.

Take UUAUAGCAAUAUUACGAGGC: the “self-splicing fitness (ln)” value reads like this: (30 °C) -3.95 ± 0.37; (37 °C) -3.71 ± 0.42. Regarding UUAUAGCAAUAUUACGAGUU, the “self-splicing fitness (ln)” value (37 °C) was -1.96 ± 0.2.

UUAUAGCAAUAUUACGAUAC: the “self-splicing fitness (ln)” value (37 °C) was -1.53 ± 0.27. Turning to UUAUAGCAAUAUUACGAUAU, the “self-splicing fitness (ln)” value is, setting by setting: (30 °C) -1.97 ± 0.13; (37 °C) -0.578 ± 0.17. The matching figures for UUAUAGCAAUAUUACGCCAU: -3.93 ± 0.31 and -3.15 ± 0.28. With UUAUAGCAAUAUUACGCGAC, the “self-splicing fitness (ln)” value (30 °C) is -2.5 ± 0.19 and the “self-splicing fitness (ln)” value (37 °C) is -1.98 ± 0.2. As to UUAUAGCAAUAUUACGCGAG, the “self-splicing fitness (ln)” value reads like this: (30 °C) -0.842 ± 0.11; (37 °C) -0.334 ± 0.12. The like results for UUAUAGCAAUAUUACGCGUU were, in that order, -3.58 ± 0.16 and -2.16 ± 0.17. Consider UUAUAGCAAUAUUACGGAGC, for which the “self-splicing fitness (ln)” value (37 °C) is -2.95 ± 0.43.

On to UUAUAGCAAUAUUACGGCAC, for which the “self-splicing fitness (ln)” value is, setting by setting: (30 °C) -2.82 ± 0.36; (37 °C) -2.51 ± 0.49. The matching figures for UUAUAGCAAUAUUACGGCAG: -0.689 ± 0.094 and -0.0118 ± 0.13. The matching figures for UUAUAGCAAUAUUACGGCCU: -1.48 ± 0.18 and -1.09 ± 0.23. As to UUAUAGCAAUAUUACGGGGG, under “30 °C”, the “self-splicing fitness (ln)” value is -3.15 ± 0.4.

For UUAUAGCAAUAUUACGGUCU, the “self-splicing fitness (ln)” value is, setting by setting: (30 °C) -3.22 ± 0.25; (37 °C) -1.28 ± 0.22. Take UUAUAGCAAUAUUACGGUGA: the “self-splicing fitness (ln)” value runs as follows: (30 °C) -0.606 ± 0.12; (37 °C) -0.405 ± 0.14. The matching figures for UUAUAGCAAUAUUACGGUUA: -0.941 ± 0.08 and -0.0464 ± 0.084.

In the case of UUAUAGCAAUAUUACGGUUG, the “self-splicing fitness (ln)” value was -1.32 ± 0.12 (30 °C) and -0.629 ± 0.15 (37 °C). The matching figures for UUAUAGCAAUAUUACGUCCG: -1.64 ± 0.17 and -1 ± 0.17.

Turning to UUAUAGCAAUAUUACGUGGU, the “self-splicing fitness (ln)” value reads like this: (30 °C) -3.55 ± 0.35; (37 °C) -3.15 ± 0.35. The matching figures for UUAUAGCAAUAUUACGUUGC: -3.27 ± 0.36 and -3.07 ± 0.4.

On to UUAUAGCAAUAUUACGUUGG, for which the “self-splicing fitness (ln)” value is, setting by setting: (30 °C) -2.91 ± 0.22; (37 °C) -1.86 ± 0.21. Consider UUAUAGCAAUAUUACGUUUU, for which the “self-splicing fitness (ln)” value reads like this: (30 °C) -3.61 ± 0.25; (37 °C) -2.64 ± 0.28. Turning to UUCAAGCAAUAUUACGAAAU, the “self-splicing fitness (ln)” value (30 °C) was -3.5 ± 0.25 and the “self-splicing fitness (ln)” value (37 °C) is -1.43 ± 0.19.
